Earlier results on 3 substances are cited in patent US7744870B1, “ST receptor binding compounds and methods of using the same” (Thomas Jefferson University, priority 1993, dated 2010).

The target of data set [1] is T1, ST receptor (Homo sapiens, UniProt P25092).
T1 construct: a preparation of ST receptors (e.g. intestinal membranes from rat intestine, human intestine, T84 cells); from tissue; host or cells: human intestinal membranes
The following applies: reported in cited literature; cited from earlier work.

Data set [2] concerns the target guanylate cyclase (Homo sapiens, UniProt P25092). Particulars: relative to native ST; cited from earlier work.

Ends that are not written are not given here.

T1 sequence (P25092 24-1073): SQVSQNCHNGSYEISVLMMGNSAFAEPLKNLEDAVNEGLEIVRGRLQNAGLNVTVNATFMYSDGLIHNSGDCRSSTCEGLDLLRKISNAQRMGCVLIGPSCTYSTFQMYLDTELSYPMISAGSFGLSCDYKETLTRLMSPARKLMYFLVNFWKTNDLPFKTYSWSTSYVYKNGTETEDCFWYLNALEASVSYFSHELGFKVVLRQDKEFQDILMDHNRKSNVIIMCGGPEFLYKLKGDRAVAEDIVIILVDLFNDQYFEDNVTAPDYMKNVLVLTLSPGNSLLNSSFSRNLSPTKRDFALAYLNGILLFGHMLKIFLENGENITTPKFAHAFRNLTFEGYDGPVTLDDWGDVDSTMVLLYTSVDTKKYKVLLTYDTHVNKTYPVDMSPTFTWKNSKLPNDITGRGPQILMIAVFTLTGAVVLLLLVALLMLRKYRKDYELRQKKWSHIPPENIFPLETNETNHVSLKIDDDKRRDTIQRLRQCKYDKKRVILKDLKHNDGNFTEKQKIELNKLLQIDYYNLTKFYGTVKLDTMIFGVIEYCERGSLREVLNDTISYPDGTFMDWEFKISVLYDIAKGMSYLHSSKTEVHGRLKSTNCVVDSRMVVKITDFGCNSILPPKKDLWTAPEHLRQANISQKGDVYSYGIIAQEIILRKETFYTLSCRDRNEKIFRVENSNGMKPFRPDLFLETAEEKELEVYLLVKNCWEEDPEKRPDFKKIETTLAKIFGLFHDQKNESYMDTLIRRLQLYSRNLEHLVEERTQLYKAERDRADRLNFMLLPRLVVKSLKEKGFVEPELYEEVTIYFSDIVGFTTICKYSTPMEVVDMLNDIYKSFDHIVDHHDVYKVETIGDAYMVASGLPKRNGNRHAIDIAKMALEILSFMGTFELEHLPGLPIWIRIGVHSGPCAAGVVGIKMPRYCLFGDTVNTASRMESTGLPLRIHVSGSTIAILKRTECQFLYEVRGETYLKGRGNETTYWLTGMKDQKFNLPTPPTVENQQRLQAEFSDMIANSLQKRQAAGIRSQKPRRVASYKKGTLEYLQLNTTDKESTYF
guanylate cyclase, sequence (P25092 24-1073): as above

Regarding “SEQ ID NO:48: 18 amino acid peptide derived from Y. enterocolitica (SSDWDCCDVCCNPACAGC; listed as Yersinia enterocolitica)”, in data set [1], the “binds to the ST receptor” value is recorded as “binds to the ST receptor”. As to “SEQ ID NO:47: 16 amino acid peptide derived from V. cholerae (IDCCICCNPACFGCLN; listed as Vibrio cholerae)”, the “binds to the ST receptor” value in data set [1] was “binds to the ST receptor”. As to “guanylin (PGTCEICAYAACTGC; ends and bridges not checked; cysteine pairing not given here; UniProt Q02747 101-115, looked up)”, the “activates guanylate cyclase at a level less than native ST” value in data set [2] is on record as 10- to 100 fold. Also, the “binds to the ST receptor” value in data set [1] is “binds to ST receptors”.
